{"source": "the nanobody polyreactivity screen of Harvey et al. (2022)"}
{"experiment": "yeast display, Sf9 membrane polyspecificity reagent, FACS + sequencing; frameworks hold sequencing errors", "in_short": "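Nanobodies from a synthetic yeast display library (Saccharomyces cerevisiae BJ5465), induced 36–48 hours with galactose, were stained 1 hour at 4 °C with 10% biotinylated, detergent-solubilized Sf9 membrane reagent, enriched on streptavidin microbeads, then FACS-sorted. Anti-HA (expression) and streptavidin (reagent binding) fluorescence set low and high (top ~1%) gates. Polyreactivity labels come from the gate of origin. Genes were colony-PCR amplified, MiSeq 2 × 250 sequenced and filtered by CDR length.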"}
{"sequence": "QVQLVESGGGLVQAGGSLRLSCADSGNIFRSYKGWYRQAPGKERELVASISRRGGSTYYADSVKGRFTISRDNAKNTVYLQINSLKPEDSAVYYCARRWSWVNGVFGLYWGQGTQVTLSS", "polyreactivity (PSR sort gate)": "high polyreactivity"}
{"sequence": "QVQLVESGGGLVQAGGSLRLSCAASGGTFFLYAMGWYRQAPGTERELVADISSGDSTNYADSVKGRFTISRDNAKNTVYLQMNSLKPEDTAVYYCAADGKLEYVNGYNLYYWGQGTQVTVSS", "polyreactivity (PSR sort gate)": "low polyreactivity"}
{"sequence": "QVQLVESGGGLDQAGGSLRLRCAASGSTFYVNAIGWYRQAPGKERELVAAITSTGTTHNADSVKGRFTISRDNAKKTVYLQMNSLKPEDTAVYYCAAGDQYKTRRNGYGYWGQGTQVTVSS", "polyreactivity (PSR sort gate)": "high polyreactivity"}
{"sequence": "QVHLVESGGCLVQAGGSLRLSCAASGFIFPWYAMGWYRQAPGKERELVAAISSSGGRTYYADSVKGRFTISRDNAKNTVYLQMNSLKPEDTGVYYCNVAYGLSQVYRYNYWGQGSQVTVSS", "polyreactivity (PSR sort gate)": "high polyreactivity"}
{"sequence": "QVQLVESGGGLVQAGGSLRLSCAASGSIFYYNMGWYRPAPGKERELVAAISGGGGSTFYADSVKGRFTISRDNAKNTVYLQMNSLKPEDTAVYYCAARATTRRKKRMDYWGQGTQVTVSS", "polyreactivity (PSR sort gate)": "high polyreactivity"}
{"sequence": "QVQLVESGGGLVQAGGSLRLSCAASGFTFGHYAMGWYRQAPGKERELVAAISRSGGTTSYADSVKGRFTISRDNAKNTVYLQMNSLKPEDTAVYYCNKDYIWARYGGGRDYWGQGTQVTVSS", "polyreactivity (PSR sort gate)": "low polyreactivity"}
{"sequence": "QVQLVESGGGLVQAGGSLRISCAPSGFTFIYYDMGWYRQAPGKERELVAAINRGGNTYYADSVKGRFTISRDNAKNTVFLLMNSLKPEDTAVYYCNARSYRRGTWYNSWGQGTKVTVSS", "polyreactivity (PSR sort gate)": "high polyreactivity"}
{"sequence": "QVQLVESGGGLVKAGGSIRISCAPSGRIFNQYGIGRNRQAPGKEMELVDAIRSGDSTNYADSVKGRFTISRDNAKNTFYLQMNRLKPEDTAVYFCARDRPGDYAGSDYWGQGTQVTVSS", "polyreactivity (PSR sort gate)": "low polyreactivity"}
{"sequence": "QVQLQESGGGLVQAGGSLRMSCAASGTISPLPAMGWYRQAPGKDRDFVAGIDTGAITNYADSVKGRFTISRDNAKNTVYLQMNSLKPEDTAVYYCAVFPAAYDYYERYYTYWGQGTQVTVSS", "polyreactivity (PSR sort gate)": "low polyreactivity"}
{"sequence": "QDQLVESGGGLVQAGGSLRLSCAASGFIFWRNTMGWYRQAPGKERELVAVITRGGSTYYADSVKGRFTISRDNAKNTVYLQMNSLKPEDTAVYYCAALNDYYKTFSGYDYWGQGTQVTVSS", "polyreactivity (PSR sort gate)": "low polyreactivity"}
{"sequence": "QVQLVESGGGLVQAGGSLRLSCAASGSIFYGNAMGWYRQAPGKERELVAAITRGTRTYYADSVKGRFTISRDNAKNTVYLQMNSLKPEDTAVYYCAAYLYVPYRYKYDYWGQGAQVTVSS", "polyreactivity (PSR sort gate)": "high polyreactivity"}
{"sequence": "QVQLVESGGGLVQAGGSLRLSCAASGRIFLYNAMAWYRQAPGKERELVASISSGDTTNYADSVKGRFTISRDNAKNTVYLQMNSLKPEDTAVYYCNAEYGTPYSWFDYWGQGTQVTVSS", "polyreactivity (PSR sort gate)": "low polyreactivity"}
{"sequence": "QVQLVESGGGLVQAGGSLRLSCAASGSTLPGNVMGWYRQAPGKERELVAAISWTGGSTYYADSVKGRFTISRDNAKNTVYLQMNSLKPEDTAVYYCAVDAYESPWWSDPYEYWGQGTQVTVSS", "polyreactivity (PSR sort gate)": "low polyreactivity"}
{"sequence": "QVQLGESGGGFVQAGGSLRLSCAASGSTFSYNAMGWYIQASGKESEFVAAISSSGGRTYYADSVKWRFTISRDYEKNTVYLQMKSLKPEDTAVYYCPAKSRLPTQGLGMYYWGKGTQVTVSS", "polyreactivity (PSR sort gate)": "high polyreactivity"}
{"sequence": "QVQLVESGGGLDQAGGSLRLSCAASGSIFSHYAMGWYRQAPGKERELVAAISRSGGSTYYADSVKGRFTISRDNAKNTVYLQMNSLKPDDTAVYYCSKEGDSGYWFDYWGQGTQVTVSS", "polyreactivity (PSR sort gate)": "low polyreactivity"}
{"sequence": "QVQLVESGGGLVQAGGSLRLSCAASGRIFQPNAMGWYRQAPGKERELVAAISSSGGRTYYADSVKGRFTISRDNAKNTVYLQMYSLKPEDSAVYYCNAGGYRYRSYDYWGQGTQVTVSS", "polyreactivity (PSR sort gate)": "high polyreactivity"}
{"sequence": "QVQLVESGGGLVQAGGSLRLSCAASGFTFFPNAKGWYRQAPGKERELVADITDGGSTNYADSVKGRFTISRDNAKNTVYLQMNSLKPEDTAVYYCNADWYGWFGGYEYWGQGTQVTVSS", "polyreactivity (PSR sort gate)": "high polyreactivity"}
{"sequence": "QVQLVESGGGLVQAGGSLRLSCAASGSTVYRYTMGWYRQAPGKERELVAAISRSGGRTYYADSVKGRFTISRDNAKNTVYLQMNSMKPEDTAVDYCNAEIAASAVQAQEGEFWGQGTQVTVSS", "polyreactivity (PSR sort gate)": "high polyreactivity"}
{"sequence": "QVQLVESGGGFVQAGGSLRLSCAASVIFGYYAMGWYSQAPGKERELVAAINWRGDSTYYADSVKGRFTISRDNAKNTVYLQMNSLKPEDTAVYYCAAQRRDIALLYDYWGQGTQVTLSS", "polyreactivity (PSR sort gate)": "low polyreactivity"}
{"sequence": "QVQLVESGGGLVQAGGSLRLSCAASGSIFFYNTMGWYRQAPGKERELVAAISASGGRTYYADSVKGRFTISRDNAKNTVYLQMISLKPEDTAVYYCAVRVPYRGYTRYDYWGQGTQVTVSS", "polyreactivity (PSR sort gate)": "high polyreactivity"}
{"sequence": "QVQLVESGGGLVQAGGSLRLSCAASGLTFSNYAMGWYRQAPGKEREFVAAISASGGSTYYAHSVKGRFTISRDYAKNTVYLQMNRLTPEDTAVYYCAASTTRPVYPANDDYWGQGTQVTVSS", "polyreactivity (PSR sort gate)": "low polyreactivity"}
{"sequence": "QVQLVESGGGLVQAGGSHRLSCPASGLTFYSNAMGWYRQSPGKERELVASISYRGGITYYADSLKGRFTISRDNAKNTVYLQMNSLKPEDTAVYYGAAGRKGSMYYWGQGTQVTVSS", "polyreactivity (PSR sort gate)": "high polyreactivity"}
{"sequence": "QDQLVESGGGLVQAGGSLRLSCAASGRTFKGYAMGWYRQAPGKERELVAAIDSDGSTSYADSVKGRFTISRDNAKNTVYLQMISLKPEDTAVYYCAAAGQRPYEKGDYWGQGTQVTVSS", "polyreactivity (PSR sort gate)": "low polyreactivity"}
{"sequence": "QVQLVDSGGGLVQAGGSLRLSCAASGLIFSQYAMGWYRQAPGKEREFVARISSSGGSTYYADSVKGRFTISRDNAKNTVYLQMNSLKPEDTAVYYCAAVGGRNIRVWFRNKYDSWGQGTQVTVSS", "polyreactivity (PSR sort gate)": "low polyreactivity"}
{"sequence": "QVQLVESGGGLVQAGCSLRLSCAASGRTGFNAMGWYRQAPGKERELVASIRSGGTSTYYADSVKGRFTISRDNAKNTVYLQMNSLKPEDTAVYYCYDYWGHGTQVTVSS", "polyreactivity (PSR sort gate)": "low polyreactivity"}
{"sequence": "QVQLVESGGGLVQAGGSLRLSCAASGRTFVGYAMGWYRQAPGKERELLAAISKSGGRTYYADSVKGRFTISRDNAKNTVFLQMNSLKPDDTAVYYCNAVVVYYVDAGRYDYWGQGTQVTVSS", "polyreactivity (PSR sort gate)": "high polyreactivity"}
{"sequence": "QVQLVESGGRLVQAGGRLRLSCAASGSISASYAMGWYRQAPGKERELVAAITSGGSTYYADSVKGRFTISRDNAKYTVYLQMNSLKPEDTAVYYCAKRPKRTYYPHIGYDYWGLGTQVTVSS", "polyreactivity (PSR sort gate)": "low polyreactivity"}
{"sequence": "QVQLVESGGGLVQAGGSLRLSCAASGSIFVKYAMGWYRQAPGKERELVAAITTGVGSTYYADSVKGRFTISRDNAKNTVYLQMNSLKPEDTAVYYCAAETIDYWYILEYDYWGQGTQVTVSS", "polyreactivity (PSR sort gate)": "low polyreactivity"}
{"sequence": "QVQLVESGGGLVQAGGSLRLSCAASGSIFKGYAMGWYRQAPGKERELVAAITYSGGGTYYADSVKGRFTISRDNAKNTVYIQMNILKPEDTAVYYCNADRYYPDDLSDGVGTYDYWGQGTQVTVSS", "polyreactivity (PSR sort gate)": "low polyreactivity"}
{"sequence": "QVQLVESGGGLVQAGGSLRLSCAASGSIFFNYAMGWYRQAPGKERELVAAISSNGGRTYYADSVKGRFTISRDNAKNTVYLQMNSLKPEDTAVYYCAARVYDYPRFGYWGQGTQVTVSS", "polyreactivity (PSR sort gate)": "high polyreactivity"}
